# Assay results reported in US8586548B2, “NAP alpha-aminoisobutyric acid analog with neuroprotective activity” (Ramot at Tel-Aviv University, Ltd., priority 2009, dated 2013).
# Entries after “also recorded” stand apart in the source; their conditions may differ. Non-standard residues stand in square brackets, D forms with d. No end group written: not given here. Aib = CC(C)(N)C(=O)O
# Columns and labels:
# [1] = molecular target: VQIVYK (SEQ ID NO:10) peptide derived from tau (Homo sapiens, UniProt P10636); experiment: In vitro tau-like VQIVYK aggregation assay (Thioflavin S); type: biochemical
# Experimental: In the presence of polyglutamic acid (or heparin), VQIVYK (SEQ ID NO:10) aggregates which can be further detected by Thioflavin S (excitation 485 nm and emission 535) with emission intensity greatly increasing.
# First, different concentrations of polyglutamic acid (0, 100 μM, 250 μM, and 400 μM) VQIVYK (SEQ ID NO:10) and either […] (NH4Ac) 50 mM pH 6.5 or MOPS 20 mM pH 6.5 and Thioflavin S 5 μM were mixed together and incubated at room temperature. The extent of aggregation was read at excitation 485 nm and emission 535 nm using the infinite 200 system with the Magellan program.
# The peptides were added at a range of concentrations (10^−17-10^−9 M) and the extent of aggregation of 100 μM VQIVYK (SEQ ID NO:10) was tested in the presence of polyglutamate 250 μM in MOPS 20 μM, pH 6.5 for 7 days.
# In order to avoid reading self peptide aggregation as VQIVYK aggregation, for each peptide concentration, the fluorescence of the peptide solution without VQIVYK was subtracted from the fluorescence of each peptide concentration containing VQIVYK.
# [2] = tested on: ADNP heterozygous male mice; experiment: Passive avoidance test; type: in vivo, mouse
# Experimental: The heterozygous ADNP mice were generated as before (Pinhasov et al., Brain Res. Dev. Brain Res. 2003, 144:83-90; and Vulih-Shultzman et al., J Pharmacol Exp Ther. 2007, 323(2):438-49). To avoid any variability in results associated with the estrous cycle in females, only ADNP^+/− male mice are use for behavioral experiments.
# Iso-NAP (NAXaaVSIXaaQ; SEQ ID NO:1) was dissolved in a vehicle solution, in which each milliliter included 7.5 mg of NaCl, 1.7 mg of citric acid monohydrate, 3 mg of disodium phosphate dihydrate, and 0.2 mg of benzalkonium chloride solution (50%). Iso-NAP or vehicle solution (DD) was administered to mice handheld in a semi-supine position with nostrils facing the investigator. A pipette tip was used to administer 2.5 μl/each nostril. The mouse was handheld until the solution is entirely absorbed. Nasal Iso-NAP application was performed daily, once a day, for 2 weeks for the Morris water maze test. In the 2nd week, Iso-NAP was applied 1 h before the daily test (see below), which was conducted for 5 consecutive days. In the passive avoidance test, all mice were treated for a total of 7 days, on the 7th day of treatment the test began. Iso-NAP was applied 1 h before the test.
# The passive avoidance task is a fear-motivated avoidance task based on the mouse conflict between avoiding the light stimulus and approaching the dark chamber in which a painful shock is given. The mouse learns to refrain from stepping through a door to an apparently safer but previously punished dark compartment. The latency to refrain from crossing into the punished compartment serves as an index of the ability to avoid, and allows memory to be assessed (Johns Hopkins University, Department of Psychological and Brain Sciences, website: nbc.jhu.edu/protocols/PassiveAvoidanceProtocol.aspx). […]
# The experiment is carried out for three days. […] The time to enter the dark compartment is recorded. […] The door is opened after 30 seconds, and the time it takes the mouse to enter the dark chamber is recorded. […] After 30 seconds (T0), the door is opened and the latency to enter the dark chamber is recorded. […]
# [3] = 100 μM VQIVYK, polyglutamate 250 μM, MOPS pH 6.5, 7 days, FIG. 4, p<0.0005 vs. control, listed as IsoNAP
substance,measurement,setting,value
"NAXaaVSIXaaQ (NA[Aib]VSI[Aib]Q) [Alpha-aminoisobutyric NAP, both prolines of NAP substituted]",inhibition of tau aggregation at 10^−13M,[1]; [3],remains effective; also recorded: more effective than NAP
same,inhibition of tau aggregation at 10^−17M,[1]; [3],more potent; also recorded: more effective than NAP
same,prevention of tau aggregation (overall),[1]; peptides at 10^−17-10^−9 M,effective for preventing tau aggregation
same,latency to enter the dark room at T0 and T30 vs T-trial,"[2]; 2 μg/mice intranasal, P<0.05",entered the dark room significantly slower than on the T-trial
same,effect on learning and memory (conclusion),"[2]; 2 μg/mice, conclusion from Morris water maze and passive avoidance tests",seems to affect positively learning and memory
same,latency to enter the dark room,[2]; 30 μg/mice intranasal,entered the dark room faster than the NAP2 group
